Drawing on PMC6985446, this text covers binding for 1 sequence.

Where a chain is given by its changes, count along the chain named.

What all share (assay): EMSA
Common to all, as to conditions: 10 mM Tris pH 8, 150 mM KCl, 500 nM EDTA, 0.1% Triton X-100, 12.5% glycerol, 1 mM DTT, 1 ug poly(dI-dC), 4 C, 30 min

In series [1] the target is T1, HetR S130D S130D (Nostoc PCC 7120) (UniProt P27709).
T1 sequence: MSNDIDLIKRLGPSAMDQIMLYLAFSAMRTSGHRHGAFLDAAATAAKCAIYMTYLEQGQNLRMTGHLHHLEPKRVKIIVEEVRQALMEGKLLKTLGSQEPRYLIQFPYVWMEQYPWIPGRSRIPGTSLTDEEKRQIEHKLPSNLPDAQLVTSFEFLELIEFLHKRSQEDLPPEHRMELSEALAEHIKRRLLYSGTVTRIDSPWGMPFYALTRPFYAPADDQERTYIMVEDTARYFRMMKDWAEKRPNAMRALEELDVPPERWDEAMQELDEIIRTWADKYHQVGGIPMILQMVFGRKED

The target in series [2] is T2, HetR S127A S127A (Nostoc PCC 7120) (UniProt P27709).
T2 sequence: T1 sequence with S127A, D130S

For series [3], the target named is T3, HetR S179A S179A (Nostoc PCC 7120) (UniProt P27709).
T3 sequence: T1 sequence with D130S, S179A

Series [4] deals with T4, HetR S130A S130A (Nostoc PCC 7120) (UniProt P27709).
T4 sequence: T1 sequence with D130A

As for “TGAGTTATACGCTATATCAATGGGGATTTTGAGCATTTTCTACTAGGTAATGAGGGGTTAGACCCCTCGCCTACTGTGCATTTGAGACTTTAAACCTACTAAGAGAATTTACCACTAAAT (double strand) [hetP promoter]”, the binding entry is “binds” in series [1], “binds” in series [2], “no binding” in series [3] and “binds” in series [4].
